Source: publication PMC8983682 (Nature Communications, 2022)

Target: full-length N1-CA09-WT, membrane-anchored, C-terminal myc tag (Influenza A virus A/California/07/2009 …, UniProt C7FH46, strain)
Assay: flow cytometry on cells
Conditions: one partner purified

B1: CD6 IgG (antibody, V domains shown)
VH: QVKLQESGGGLVQPKGSLKLSCAASGFTFNTYAMNWVRQAPGKGLEWVARIRSKSNNYATFYADSVKDRFTISRDDSQSMLYLQMHNLKTDDTAMYYCVRPSIYYYASGYLDVWGAGTTVTVSS
VL: QIVLSQSPAILSASPGEKVTMTCRTSSSVSYMHWYQQKPGSSPKPWIYATSNLASGVPFRFSGSGSGTSYSLTISRVEAEDAATYYCQQWNSNPPTFGGGTKLEIK
notes: copies: 2 + 2
binding result: binds
